Test results as given in paper PMC3394778, “Ubiquitylation of Terminal Deoxynucleotidyltransferase Inhibits Its Activity” (PLoS ONE, 2012).

B1: GST-TdT (terminal deoxynucleotidyltransferase) (natural protein)
chain: MDPLCTASSGPRKKRPRQVGASMASPPHDIKFQNLVLFILEKKMGTTRRNFLMELARRKGFRVENELSDSVTHIVAENNSGSEVLEWLQVQNIRASSQLELLDVSWLIESMGAGKPVEITGKHQLVVRTDYSATPNPGFQKTPPLAVKKISQYACQRKTTLNNYNHIFTDAFEILAENSEFKENEVSYVTFMRAASVLKSLPFTIISMKDTEGIPCLGDKVKCIIEEIIEDGESSEVKAVLNDERYQSFKLFTSVFGVGLKTSEKWFRMGFRSLSKIMSDKTLKFTKMQKAGFLYYEDLVSCVTRAEAEAVGVLVKEAVWAFLPDAFVTMTGGFRRGKKIGHDVDFLITSPGSAEDEEQLLPKVINLWEKKGLLLYYDLVESTFEKFKLPSRQVDTLDHFQKCFLILKLHHQRVDSSKSNQQEGKTWKAIRVDLVMCPYENRAFALLGWTGSRQFERDIRRYATHERKMMLDNHALYDKTKRVFLKAESEEEIFAHLGLDYIEPWERNA
notes: Terminal deoxynucleotidyltransferase (TdT), bovine; cDNA isolated from a bovine thymus cDNA library; wild type; source: E. coli BL21(DE3)pLysS Rosetta2, purified (Glutathione Sepharose 4B)

What was measured:
Conditions in all cases: both partners purified
[1] = biological target: B1; experiment: pull-down; GST-TdT coupled to Glutathione Sepharose 4B as bait, His-tagged proteins added for 1 h (coupling at 4°C); binding buffer A: 50 mM Tris-HCl pH 7.4, 150 mM NaCl, 2.5 mM MgCl2, 1% TritonX-100, 10% glycerol, 1 mM DTT; immunoblot with anti-His; Figure 2A with or without His-Ub
[2] = biological target: T1, His-UbcH5b (human, UniProt P62837 1-147); experiment: as above
T1 construct: UbcH5b (E2), human; cDNA amplified from a human thymus cDNA library; also called UbcH5 isoforms; source: E. coli BL21(DE3), purified (Ni Sepharose 6 Fast Flow)

[3] = biological target: T2, His-TdT del 2 (150–509) (bovine, UniProt P06526 150-509); experiment: pull-down; GST-UbcH5a coupled to Glutathione Sepharose 4B as bait, His-TdT deletion mutants as prey; binding buffer A: 50 mM Tris-HCl pH 7.4, 150 mM NaCl, 2.5 mM MgCl2, 1% TritonX-100, 10% glycerol, 1 mM DTT; immunoblot with anti-His
T2 construct: also called C-terminal region of TdT; source: E. coli BL21(DE3)pLysS Rosetta2, purified (Ni Sepharose 6 Fast Flow)

binding result [1]	Binder	other results
binds	His-UbcH10 (enzyme, human, UniProt O00762 1-179, looked up, UbcH10 (E2), human; cDNA amplified from a human thymus cDNA library; source: E. coli BL21(DE3), purified (Ni Sepharose 6 Fast Flow)) MASQNRDPAATSVAAARKGAEPSGGAARGPVGKRLQQELMTLMMSGDKGISAFPESDNLFKWVGTIHGAAGTVYEDLRYKLSLEFPSGYPYNAPTVKFLTPCYHPNVDTQGNICLDILKEKWSALYDVRTILLSIQSLLGEPNIDSPLNTHAAELWKNPTAFKKYLQETYSKQVTSQEP	
binds	His-UbcH5a (wild type) (enzyme, UbcH5a (ubiquitin-conjugating enzyme E2), human; cDNA amplified from a human thymus cDNA library; also called His-wtUbcH5a; wtUbcH5a; source: E. coli BL21(DE3), purified (Ni Sepharose 6 Fast Flow)) not shown	
	B1	binding result [2]: binds
binds	His-UbcH6 (enzyme, human, UniProt P51965 1-193, looked up, UbcH6 (E2), human; cDNA amplified from a human thymus cDNA library; source: E. coli BL21(DE3), purified (Ni Sepharose 6 Fast Flow)) MSDDDSRASTSSSSSSSSNQQTEKETNTPKKKESKVSMSKNSKLLSTSAKRIQKELADITLDPPPNCSAGPKGDNIYEWRSTILGPPGSVYEGGVFFLDITFTPEYPFKPPKVTFRTRIYHCNINSQGVICLDILKDNWSPALTISKVLLSICSLLTDCNPADPLVGSIATQYMTNRAEHDRMARQWTKRYAT	
	GST-UbcH5a (enzyme, UbcH5a (ubiquitin-conjugating enzyme E2), human; cDNA amplified from a human thymus cDNA library; also called GST-Ubc5a; source: E. coli BL21(DE3), purified (Glutathione Sepharose 4B)) not shown	binding result [3]: binds
binds	Ubc13/MMS2 (His-UbcH13 with His-MMS2) (complex, UbcH13 (Ubc13, E2), human; cDNA amplified from a human thymus cDNA library; MMS2, E2 variant that lacks the active cysteine, human; The two chains were expressed and purified separately; also called UbcH13-MMS2; source: E. coli BL21(DE3), each purified (Ni Sepharose 6 Fast Flow)) chain 1: MAGLPRRIIKETQRLLAEPVPGIKAEPDESNARYFHVVIAGPQDSPFEGGTFKLELFLPEEYPMAAPKVRFMTKIYHPNVDKLGRICLDILKDKWSPALQIRTVLLSIQALLSAPNPDDPLANDVAEQWKTNEAQAIETARAWTRLYAMNNI chain 2: not shown	
